We go through 1 molecule from paper PMC11467436, “Novel mechanisms of MITF regulation identified in a mouse suppressor screen”.

What all share (details): protein: recombinant; tags: none (His6-SUMO removed by ULP-1); unlabeled; chain copies: 2; label: Cy3B (5' positive strand); CF660R (5' negative strand); blunt
Data set [1] has as its target T1, hMITF-WT (Homo sapiens, UniProt O75030-9 1-419). The data set is described as follows: FCS; 300 mM KCl; Single-molecule: 0.5 nM DNA, 10 mM Tris pH 7.4, 0.1 mM EDTA, 165 or 300 mM KCl, 1 mM MgCl2, 143 mM 2-ME, 0.01% Tween-20, 0.1 mg/mL BSA. EMSA: 10 mM Hepes pH 7.9, 50 mM NaCl, 5 mM MgCl2, 0.1 mM EDTA, 2 mM DTT, 5% ethylene glycol, 5% glycerol, BSA, 30 min on ice.
The target of data set [2] is T2, hMITF-sl (Homo sapiens, UniProt O75030-10 1-309). Described as above.
Data set [3] deals with T3, hMITF-sp (Homo sapiens, UniProt O75030-10 1-413). Described as above.
Data set [4] concerns the target T1, hMITF-WT. The data set is described as follows: smFRET; 300 mM KCl; Single-molecule: 0.5 nM DNA, 10 mM Tris pH 7.4, 0.1 mM EDTA, 165 or 300 mM KCl, 1 mM MgCl2, 143 mM 2-ME, 0.01% Tween-20, 0.1 mg/mL BSA. EMSA: 10 mM Hepes pH 7.9, 50 mM NaCl, 5 mM MgCl2, 0.1 mM EDTA, 2 mM DTT, 5% ethylene glycol, 5% glycerol, BSA, 30 min on ice. (A gel shift assay detects complexes by their altered migration in electrophoresis.)

The target in data set [5] is T2, hMITF-sl. The description is as above.
The target of data set [6] is T3, hMITF-sp. The description is as above.
Data set [7] concerns the target T1, hMITF-WT. The experiment in a line: single-molecule fluorescence anisotropy; 300 mM KCl; Single-molecule: 0.5 nM DNA, 10 mM Tris pH 7.4, 0.1 mM EDTA, 165 or 300 mM KCl, 1 mM MgCl2, 143 mM 2-ME, 0.01% Tween-20, 0.1 mg/mL BSA. EMSA: 10 mM Hepes pH 7.9, 50 mM NaCl, 5 mM MgCl2, 0.1 mM EDTA, 2 mM DTT, 5% ethylene glycol, 5% glycerol, BSA, 30 min on ice.
Data set [8] concerns the target T2, hMITF-sl. The description is as above.
The target of data set [9] is T3, hMITF-sp. The description is as above.

T3 sequence (O75030 other isoform, or with tags, fused parts or gaps): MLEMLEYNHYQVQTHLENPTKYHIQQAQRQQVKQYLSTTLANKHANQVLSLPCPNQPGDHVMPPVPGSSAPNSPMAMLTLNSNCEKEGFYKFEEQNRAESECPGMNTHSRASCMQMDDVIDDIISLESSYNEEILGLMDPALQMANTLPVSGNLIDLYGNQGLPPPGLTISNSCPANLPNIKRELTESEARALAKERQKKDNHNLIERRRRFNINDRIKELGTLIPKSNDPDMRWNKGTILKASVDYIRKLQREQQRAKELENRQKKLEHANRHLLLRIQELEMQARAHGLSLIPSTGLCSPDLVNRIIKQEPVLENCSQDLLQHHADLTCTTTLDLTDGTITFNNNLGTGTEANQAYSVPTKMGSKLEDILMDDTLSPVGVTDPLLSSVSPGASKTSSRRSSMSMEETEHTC
T2 sequence (O75030 other isoform, or with tags, fused parts or gaps): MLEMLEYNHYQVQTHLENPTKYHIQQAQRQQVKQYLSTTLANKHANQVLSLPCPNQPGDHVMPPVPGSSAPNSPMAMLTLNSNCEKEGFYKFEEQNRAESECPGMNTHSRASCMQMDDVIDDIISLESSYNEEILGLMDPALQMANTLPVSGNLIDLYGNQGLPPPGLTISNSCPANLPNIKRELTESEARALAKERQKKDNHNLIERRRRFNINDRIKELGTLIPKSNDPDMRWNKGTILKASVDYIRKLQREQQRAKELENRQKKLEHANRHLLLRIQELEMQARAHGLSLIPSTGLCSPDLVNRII
T1 sequence (O75030 other isoform, or with tags, fused parts or gaps): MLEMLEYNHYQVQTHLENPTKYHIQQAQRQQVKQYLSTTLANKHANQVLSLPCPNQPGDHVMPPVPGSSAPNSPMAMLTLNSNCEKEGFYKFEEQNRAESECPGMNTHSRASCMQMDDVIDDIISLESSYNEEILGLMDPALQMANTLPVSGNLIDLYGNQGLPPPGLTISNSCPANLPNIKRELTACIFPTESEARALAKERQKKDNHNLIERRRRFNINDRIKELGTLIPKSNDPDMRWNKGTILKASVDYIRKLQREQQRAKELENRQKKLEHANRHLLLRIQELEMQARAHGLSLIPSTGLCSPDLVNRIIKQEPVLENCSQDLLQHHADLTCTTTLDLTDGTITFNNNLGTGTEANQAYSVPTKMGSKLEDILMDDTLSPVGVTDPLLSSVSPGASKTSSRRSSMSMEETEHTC

B1: M-box smFRET probe (dsDNA)
DNA 1: GAGATCATGTGTTGA
DNA 2: TCAACACATGATCTC
modifications: 5' C6-amino linker on both strands
As for B1, the Kd – broadly, the free concentration of one partner at which half of the binding sites on the other are occupied at equilibrium, for simple one-to-one binding – came to 4.5 ± 1.4 nM in data set [1]; 3.1 ± 1.6 nM in [2]; 5.8 ± 3.5 nM in data set [3]; 1.6 ± 1.4 nM in data set [4]; 1.6 ± 0.5 nM in data set [5]; 1.7 ± 0.9 nM in data set [6]. The Kd in data set [7] was 1.9 ± 0.6 nM; in data set [8], 0.9 ± 0.4 nM; in data set [9] it was 1 ± 0.4 nM.
